Measurements published in patent US20220119518A1 (KUMHO HT, published 2022).

T1: Antigen CD66c (CEACAM6; Sino Biological, Inc.) (UniProt P40199 35-320)
T1 construct: Bought antigen, coated on the ELISA plate; construct not described; also called CECACAM6 (CD66c) antigen; CD66c antigen
T1 sequence (looked up): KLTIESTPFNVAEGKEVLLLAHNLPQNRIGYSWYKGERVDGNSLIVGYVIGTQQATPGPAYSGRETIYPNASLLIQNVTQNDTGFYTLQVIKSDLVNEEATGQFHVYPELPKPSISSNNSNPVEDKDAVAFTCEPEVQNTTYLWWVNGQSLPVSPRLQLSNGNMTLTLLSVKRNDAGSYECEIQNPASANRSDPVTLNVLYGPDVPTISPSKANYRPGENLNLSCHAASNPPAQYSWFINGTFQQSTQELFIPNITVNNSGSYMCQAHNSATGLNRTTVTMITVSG

T2: CEACAM1 antigen (Sino Biological, Inc.) (UniProt P13688 35-428)
T2 construct: Bought antigen, coated on the ELISA plate; construct not described; also called CEACAM1 (CD66a) antigen; CD66a
T2 sequence (looked up): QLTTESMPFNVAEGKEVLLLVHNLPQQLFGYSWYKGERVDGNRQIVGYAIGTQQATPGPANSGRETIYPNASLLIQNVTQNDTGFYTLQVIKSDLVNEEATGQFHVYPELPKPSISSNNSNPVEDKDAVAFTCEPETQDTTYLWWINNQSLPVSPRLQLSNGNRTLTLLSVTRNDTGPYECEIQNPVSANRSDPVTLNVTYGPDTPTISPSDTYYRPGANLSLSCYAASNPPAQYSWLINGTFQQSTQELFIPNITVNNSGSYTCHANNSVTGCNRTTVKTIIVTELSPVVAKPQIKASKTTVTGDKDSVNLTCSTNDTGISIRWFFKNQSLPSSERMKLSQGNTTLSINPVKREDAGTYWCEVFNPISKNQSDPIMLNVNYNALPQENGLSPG


Assays:
[1] = target: T1, Antigen CD66c (CEACAM6; Sino …); assay: ELISA, CEACAM6 coated 100 ng/well, antibody at 0.51 ng/ml
Procedure: (§1) Antigen CD66c (CEACAM6; Sino Biological, Inc.) and CEACAM1 antigen (Sino Biological, Inc.) were coated on a 96-well plate at a rate of 100 ng per well and then blocked. The primary antibody was diluted 3-fold from 10 ug/ml and bound at 37° C. for 1 hour. […] goat anti-Human Ig-HRP conjugate (Jackson ImmunoResearch) as a secondary antibody was diluted 1:10,000 and incubated at 37° C. for 30 minutes. The washing was carried out at three times between each step, and the TMB reaction was performed, stopped with 1N H₂SO₄ solution at the same amount of TMB solution (100 ul) and then OD value was measured at 450 nm.
(§2) As a result of the experiment, the binding affinities to CD66c antigen of the five kinds of recombinant humanized antibodies selected from among 96 kinds of recombinant humanized antibodies are shown in FIG. 4a, Table 12, FIG. 4b and Table 13. FIG. 4a and Table 12 show the binding capacity of the antibodies to CECACAM6 CD66c) antigen, and FIG. 4b and Table 13 are the results for the CEACAM1 (CD66a) antigen.

[2] = target: T2, CEACAM1 antigen (Sino Biological, Inc.); assay: ELISA, CEACAM1 coated 100 ng/well, antibody at 0.51 ng/ml
Procedure: as §1

[3] = target: T2, CEACAM1 antigen (Sino Biological, Inc.); assay: ELISA, CEACAM1 coated 100 ng/well, antibody at 3333.33 ng/ml
Procedure: as §1

[4] = target: T1, Antigen CD66c (CEACAM6; Sino …); assay: ELISA, CEACAM6 coated 100 ng/well, antibody at 13.72 ng/ml
Procedure: as §1, §2

[5] = target: T1, Antigen CD66c (CEACAM6; Sino …); assay: ELISA, CEACAM6 coated 100 ng/well, antibody at 0.17 ng/ml
Procedure: as §1, §2

[6] = target: T2, CEACAM1 antigen (Sino Biological, Inc.); assay: ELISA, CEACAM1 coated 100 ng/well, antibody at 4.57 ng/ml
Procedure: as §1

[7] = target: T1, Antigen CD66c (CEACAM6; Sino …); assay: ELISA, CEACAM6 coated 100 ng/well, antibody at 3333.33 ng/ml
Procedure: as §1, §2

[8] = target: T2, CEACAM1 antigen (Sino Biological, Inc.); assay: ELISA, CEACAM1 coated 100 ng/well, antibody at 41.15 ng/ml
Procedure: as §1

[9] = target: T2, CEACAM1 antigen (Sino Biological, Inc.); assay: ELISA, CEACAM1 coated 100 ng/well, antibody at 370.37 ng/ml
Procedure: as §1

[10] = target: T2, CEACAM1 antigen (Sino Biological, Inc.); assay: ELISA, CEACAM1 coated 100 ng/well, antibody at 10000.00 ng/ml
Procedure: as §1

[11] = target: T2, CEACAM1 antigen (Sino Biological, Inc.); assay: ELISA, CEACAM1 coated 100 ng/well, antibody at 1.52 ng/ml
Procedure: as §1

[12] = target: T2, CEACAM1 antigen (Sino Biological, Inc.); assay: ELISA, CEACAM1 coated 100 ng/well, antibody at 1111.11 ng/ml
Procedure: as §1

[13] = target: T2, CEACAM1 antigen (Sino Biological, Inc.); assay: ELISA, CEACAM1 coated 100 ng/well, antibody at 123.46 ng/ml
Procedure: as §1

[14] = target: T2, CEACAM1 antigen (Sino Biological, Inc.); assay: ELISA, CEACAM1 coated 100 ng/well, antibody at 0.17 ng/ml
Procedure: as §1, §2

[15] = target: T1, Antigen CD66c (CEACAM6; Sino …); assay: ELISA, CEACAM6 coated 100 ng/well, antibody at 41.15 ng/ml
Procedure: as §1

OD 450 nm [1] [OD 450 nm] | OD 450 nm [2] [OD 450 nm] | OD 450 nm [3] [OD 450 nm] | OD 450 nm [4] [OD 450 nm] | OD 450 nm [5] [OD 450 nm] | OD 450 nm [6] [OD 450 nm] | OD 450 nm [7] [OD 450 nm] | OD 450 nm [8] [OD 450 nm] | OD 450 nm [9] [OD 450 nm] | OD 450 nm [10] [OD 450 nm] | OD 450 nm [11] [OD 450 nm] | OD 450 nm [12] [OD 450 nm] | OD 450 nm [13] [OD 450 nm] | OD 450 nm [14] [OD 450 nm] | OD 450 nm [15] [OD 450 nm] | Binder
0.38 | 0.04 | 0.31 | 1.06 | 0.37 | 0.05 | 3.18 | 0.07 | 0.12 | 0.42 | 0.05 | 0.19 | 0.07 | 0.04 | 1.38 | recombinant humanized anti-CD66c antibody Protein ID 3058 (Vk8 + VH11) (antibody, human IgG1, V domains shown, also called hu 3058; #86) VH: QVQLVQSGAEVKKPGASVKISCKASGYSFTDYTMHWVKQAPGQNLEWIGLINPFGGSTSYAQKFKGRVTMTRDTSTNTAYMELSRLRSDDTAVYYCVRGDPVRHYYALAYWGQGTLVTVSS VL: DIQMTQSPSTLSASVGDRVTITCRASENVYGTLNWYQRKPGKAPKLLIYGATNLADGMPSRFSGSGSGTEYTLTISSLQPDDFATYYCQNVLSAPYTFGGGTKLEIK
0.49 | 0.1 | 1.22 | 1.37 | 0.41 | 0.27 | 2.95 | 0.61 | 0.8 | 0.91 | 0.16 | 1.17 | 0.7 | 0.08 | 1.73 | recombinant humanized anti-CD66c antibody Protein ID 3043 (Vk8 + VH6) (antibody, V domains shown, also called hu 3043; #71) VH: QVQLVQSGAEVKKPGASMKISCKASGYSFTDYTMNWVKQAPGQNLEWIGLINPFHGGTVSNQRFKVKATLTVDVSTNTAYMELSRLRSDDTAVYYCVRGDPVRHYYALAYWGQGTLVTVSS VL: DIQMTQSPSTLSASVGDRVTITCRASENVYGTLNWYQRKPGKAPKLLIYGATNLADGMPSRFSGSGSGTEYTLTISSLQPDDFATYYCQNVLSAPYTFGGGTKLEIK

The remaining lines, values behind:

Binder | OD 450 nm [1] [OD 450 nm] | OD 450 nm [2] [OD 450 nm] | OD 450 nm [3] [OD 450 nm] | OD 450 nm [4] [OD 450 nm] | OD 450 nm [5] [OD 450 nm] | OD 450 nm [6] [OD 450 nm] | OD 450 nm [7] [OD 450 nm] | OD 450 nm [8] [OD 450 nm] | OD 450 nm [9] [OD 450 nm] | OD 450 nm [10] [OD 450 nm] | OD 450 nm [11] [OD 450 nm] | OD 450 nm [12] [OD 450 nm] | OD 450 nm [13] [OD 450 nm] | OD 450 nm [14] [OD 450 nm] | OD 450 nm [15] [OD 450 nm]
anti-CD66c chimeric antibody 8F5 (antibody, human IgG1, V domains shown, also called chimeric 8F5; chi 8F5) VH: EVQLQQSGPELVKPGASMKISCKASGYSFTDYTMNWVKQSHGKNLEWIGLINPFHGGTVSNQRFKVKATLTVDVSSNTAYMELLSLTSDDSAVYYCVRGDPVRHYYALAYWGQGTSVTVSS VL: DIQMTQSPASLSASVGETVTITCGASENVYGTLNWYQRKQGKSPQLLIYGATNLADGMSSRFSGSGSGRQYSLKISSLHPDDVATYYCQNVLSAPYTFGGGTKLEII | 0.41 | 0.1 | 1.24 | 1.15 | 0.4 | 0.28 | 3.41 | 0.82 | 1.13 | 1.21 | 0.16 | 1.21 | 0.95 | 0.08 | 2.02
recombinant humanized anti-CD66c antibody Protein ID 3007 (Vk7 + VH6) (antibody, human IgG1, V domains shown, also called hu 3007; #43) VH: QVQLVQSGAEVKKPGASMKISCKASGYSFTDYTMNWVKQAPGQNLEWIGLINPFHGGTVSNQRFKVKATLTVDVSTNTAYMELSRLRSDDTAVYYCVRGDPVRHYYALAYWGQGTLVTVSS VL: DIQMTQSPSTLSASVGDRVTITCGASENVYGTLNWYQRKPGKAPKLLIYGATNLADGVPSRFSGSGSGTEYTLTISSLQPDDFATYYCQNVLSAPYTFGGGTKLEIK | 0.64 | 0.11 | 1.15 | 1.64 | 0.53 | 0.27 | 3.24 | 0.66 | 0.92 | 1.01 | 0.18 | 1.06 | 0.82 | 0.09 | 2.17
recombinant humanized anti-CD66c antibody Protein ID 2938 (Vk5 + VH7) (antibody, human IgG1, V domains shown, also called hu 2938) VH: QVQLVQSGAEVKKPGASMKISCKASGYSFTDYTMNWVRQAPGQGLEWIGLINPFHGGTVSNQRFKVKATLTVDVSTNTAYMELSRLRSDDTAVYYCVRGDPVRHYYALAYWGQGTLVTVSS VL: DIQMTQSPSTLSASVGDRVTITCGASENVYGTLAWYQRKPGKAPKLLIYGATNLADGVPSRFSGSGSGREYTLTISSLQPDDFATYYCQNVLSAPYTFGGGTKLEIK | 0.36 | 0.05 | 0.27 | 1.15 | 0.3 | 0.05 | 3.27 | 0.07 | 0.14 | 0.32 | 0.05 | 0.21 | 0.1 | 0.04 | 1.72
